This note sets out measurements from doi:10.1101/2024.01.03.573903v1.

Substrate in this data set: Nc1ncnc2c1ncn2[C@@H]1O[C@H](COP(=O)(O)OP(=O)(O)OP(=O)(O)O)[C@@H](O)[C@H]1O
In words: malachite green phosphate release NTPase assay. In kind it is biochemical, Zika virus. The conditions noted are these: no curcumin, 1% DMSO, 80 nM enzyme, Tris pH 7.4, 25 °C.

B1: ZIKV NS3 helicase (Zika virus) (protein)
chain: PVECFEPSMLKKKQLTVLDLHPGAGKTRRVLPEIVREAIKKRLRTVILAPTRVVAAEMEEALRGLPVRYMTTAVNVTHSGTEIVDLMCHATFTSRLLQPIRVPNYNLNIMDEAHFTDPSSIAARGYISTRVEMGEAAAIFMTATPPGTRDAFPDSNSPIMDTEVEVPERAWSSGFDWVTDHSGKTVWFVPSVRNGNEIAACLTKAGKRVIQLSRKTFETEFQKTKNQEWDFVITTDISEMGANFKADRVIDSRRCLKPVILDGERVILAGPMPVTHASAAQRRGRIGRNPNKPGDEYMYGGGCAETDEGHAHWLEARMLLDNIYLQDGLIASLYRPEADKVAAIEGEFKLRTEQRKTFVELMKRGDLPVWLAYQVASAGITYTDRRWCFDGTTNNTIMEDSVPAEVWTKYGEKRVLKPRWMDARVCSDHAALKSFKEFAAGKR
As for B1, the Km stood at 336.3 ± 61.97 µM and the kcat turned out to be 1.025 ± 0.06 s⁻¹.
